Experimental data taken from US9932390 (SHRINERS HOSPITAL FOR CHILDREN, dated 2018).
Positions of bridges follow the written chain, without caps; N, C: chain ends. Chains are numbered I, II in the order given. No end group written: not given here.

T1: α2NC2 (NC2 domain of the human collagen IX α2 chain) (human)
T1 construct: Expressed as the Trx_α2NC2 fusion and cleaved with thrombin; also called U2
T1 peptide: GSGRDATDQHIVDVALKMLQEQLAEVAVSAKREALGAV

T2: α3NC2-(GPP)5CC (human, not fully specified; chain 1: Cys60 and Cys61 (collagen III cystine knot) form interchain disulfides in the oxidized trimer. Cys15 is also counted as oxidized in the calculated trimer mass.)
T2 construct: Mixed and reoxidized as a His-tagged thioredoxin fusion, then characterized after thrombin cleavage as part of α123NC2-(GPP)5CC; also called Trx_α3NC2-(GPP)5CC (before thrombin cleavage)
T2 peptide: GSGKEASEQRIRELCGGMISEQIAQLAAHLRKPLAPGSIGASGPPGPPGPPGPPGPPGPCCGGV

B1: disulfide-bonded α1NC2-α3NC2 (NC2 domains of the human collagen IX α1 and α3 chains, linked by a disulfide) (other)
chain 1: GSPTDQHIKQVCMRVIQEHFAEMAASLKRPDS
chain 2: GSASEQRIRELCGGMISEQIAQLAAHLRKPLAP
modifications: disulfide I:12-II:12 (inferred)
notes: Part of the α123NC2 complex after removal of His-tagged thioredoxin; also called α1-α3; U13
B2: α1NC2-(GPP)5CC (peptide)
peptide: GSGYPGRAPTDQHIKQVCMRVIQEHFAEMAASLKRPDSGATGASGPPGPPGPPGPPGPPGPCCGGV
modifications: not fully specified; also: interchain disulfides via Cys62 and Cys63 in the trimer with other chains
notes: Mixed and reoxidized as a His-tagged thioredoxin fusion, then characterized after thrombin cleavage as part of α123NC2-(GPP)5CC; also called Trx_α1NC2-(GPP)5CC (before thrombin cleavage)

Key:
[1] = molecular target: T1, α2NC2 (NC2 domain of the human collagen …); test: CD at 222 nm, thermal transition at 18.7 µM complex, pH 4.5, bimolecular two-state fit
Experimental: (§1) FIG. 9. Thermal transitions of the NC2-containing complexes. A, Thermal transition curves of α123NC2-(GPP)_5CC were recorded in 50 mM sodium acetate buffer, pH 4.5, supplemented with 0M (green circles), 1M (red circles for heating and blue circles for cooling), and 2M (cyan circles) guanidine hydrochloride using 7 μM complex concentrations and a 1-mm path length quartz cuvette. The change in collagen triple helical and α-helical contents was monitored at 230 nm with a scan rate of 1° C./min. […] The first transition followed by the increase of the CD signal is associated with the unfolding of the collagen triple helix, whereas the second transition is associated with the unfolding of the NC2 domain. […] The change in α-helical content was monitored at 222 nm with a scan rate of 0.25° C./min. The curves were globally fitted (white lines) as described herein.
(§2) Since the α1NC2 chain is disulfide-linked to the α3NC2 chain, only two products dissociates from the complex upon denaturation and the folding reaction should be considered as bimolecular. According to this and other assumptions (see 1.1.-1.10., above), two transitions using a 10-fold difference in concentrations of the complex were separately globally fitted and yielded similar values of the standard enthalpy, $\Delta H^0$, and the standard entropy, $\Delta S^0$.

[2] = molecular target: T1, α2NC2 (NC2 domain of the human collagen …); test: CD at 222 nm, thermal transition at 1.87 µM complex, pH 4.5, bimolecular two-state fit
Experimental: as §1, §2

α3NC2-(GPP)5CC = molecular target: T2, α3NC2-(GPP)5CC; test: oxidative folding of the three Trx fusions, non-reducing SDS-PAGE
Experimental: Initially the purified constructs either with or without collagenous part were folded under the same oxidative conditions. The three chains of approximately equal concentrations were mixed, diluted with water and the buffer was adjusted to 100 mM Tris/HCl buffer, pH 8.6, containing 15 mM Na-phosphate, 150 mM NaCl, 150 mM imidazol, 10 mM reduced glutathione, 1 mM oxidized glutathione at 25° C. Final concentration of each chain was ~10 µM. The solution was sequentially incubated at 37° C. for 24 hours, at 30° C. for 24 hours, 25° C. for 24 hours and the pH value was periodically checked and adjusted to be not lower than 8.3. Finally, the solution was extensively dialyzed against 50 mM Tris/HCl buffer, pH 8, containing 150 mM NaCl, at room temperature to remove imidazol and reducing agents.
1.11.3. Results: Initial Purification of Fusion Proteins Trx_α1NC2-(GPP)_5C, Trx_α2NC2-(GPP)_5CC and Trx_α3NC2-(GPP)5CC and their Reoxidation Soluble fractions of cell lysates were separately purified over the Ni-NTA resin and analyzed on a gel (FIG. 2A, lanes 1-3). In addition to bands corresponding to monomeric species around 20 kDa, dimeric, trimeric and ladders of higher multimers were observed, indicating formation of multiple intermolecular disulfide bonds, presumably due to misfolding. […]

| Binder | Tm (midpoint of the coupled unfolding and dissociation) [1] [° C.] | ΔH^0 (standard enthalpy of U13+U2 to N) [1] | ΔS^0 (standard entropy of U13+U2 to N) [1] | Tm (midpoint of the coupled unfolding and dissociation) [2] [° C.] | ΔH^0 (standard enthalpy of U13+U2 to N) [2] | ΔS^0 (standard entropy of U13+U2 to N) [2] | binding result (α3NC2-(GPP)5CC) |
| --- | --- | --- | --- | --- | --- | --- | --- |
| B1 | 65.8 | -203 kJ/(mol complex) | -502 J/(mol complex K) | 51.2 | -200 kJ/(mol complex) | -500 J/(mol complex K) |  |
| B2 |  |  |  |  |  |  | binds |
